The target in assay [1] is ZAP-70 tSH2 domain R190A mutant (human) (UniProt P43403). Put plainly: ITC; 20 μM R190A tSH2 in the cell, 300 μM ITAM-ζ1-Y2P in the syringe; 20 °C; 20 mM HEPES pH 8.2, 5 mM β-mercaptoethanol, glycerol-free; 20 mM KCl; one-site model. For orientation: Isothermal titration calorimetry measures the heat released or taken up as one component is titrated into another.
For assay [2] the target is unchanged. Nature of the assay: ITC; 20 μM R190A tSH2 in the cell, 300 μM ITAM-ζ1-Y2P in the syringe; 20 °C; 20 mM HEPES pH 8.2, 5 mM β-mercaptoethanol, glycerol-free; 150 mM NaCl; one-site model.
Assay [3] shares this target. Put plainly: ITC; 20 μM R190A tSH2 in the cell, 300 μM ITAM-ζ1-Y2P in the syringe; 20 °C; 20 mM HEPES pH 8.2, 5 mM β-mercaptoethanol, glycerol-free; 5 mM KCl; one-site model.

Regarding “ITAM-ζ1-Y2P peptide (doubly phosphorylated first ITAM of the CD3-ζ chain)”, the Kd worked out at 20.9 µM in assay [1], 6.33 µM in assay [2] and 9.77 µM in assay [3].

As a reminder, the Kd is the equilibrium constant for the complex coming apart.

The values are drawn from paper PMC13235457.
